Assay [1] deals with TMR-labeled SNAP-25a (S187C) (human) (UniProt P60880). In words: FRET or BRET; membrane-free, 37°C; 5 μM co-expressed Munc18-1/syntaxin-1 (1–261), 5 μM TMR-SNAP-25a (S187C), 1 μM BDPY-synaptobrevin-2 (29–93, S61C), 30 μM Munc13-1 MUN domain, with or without 2 μM Syt1 C2AB; fitted to a one-phase exponential decay. On the technique in general: In BRET a luciferase serves as donor, and the signal depends on an acceptor being close.

Assay [2] has the same target. In words: FRET or BRET; one-membrane system, 37°C; Munc18-1/full-length syntaxin-1 on t-liposomes, TMR-SNAP-25a (S187C), BDPY-synaptobrevin-2 (29–93, S61C) in solution, 0.5 μM Munc13-1 C1-C2B-MUN, with or without 0.5 μM Syt1 C2AB, 0.2 mM EDTA; two-phase exponential decay.
For assay [3], the target named is TMR labeled SNAP-25a Δ9 (residues 1–197, S187C) (human) (UniProt P60880). Description: FRET or BRET; two-membrane system, 37°C; Munc18-1/full-length syntaxin-1 on t-liposomes, BDPY-full-length synaptobrevin-2 (S61C) on v-liposomes, TMR-SNAP-25a Δ9 (S187C), 0.5 μM Munc13-1 C1-C2B-MUN, with or without 0.5 μM Syt1 C2AB, 0.2 mM EDTA; two-phase exponential decay.

In assay [1], “BDPY-labeled synaptobrevin-2 cytoplasmic domain (residues 29–93, S61C) (from UniProt P63045 29-93) (domain or fragment)” displayed a kfast of ternary SNARE complex formation (no Syt1) of 0.0013 s⁻¹, a kfast of ternary SNARE complex formation (with Syt1 C2AB) of 0.00354 s⁻¹, a τfast of ternary SNARE complex formation (no Syt1) of 770 s and a τfast of ternary SNARE complex formation (with Syt1 C2AB) of 282 s. In assay [2], this substance came in with a kfast of ternary SNARE complex formation (no Syt1) of 0.00135 s⁻¹, a kfast of ternary SNARE complex formation (with Syt1 C2AB) of 0.0152 s⁻¹, a τfast of ternary SNARE complex formation (no Syt1) of 740 s and a τfast of ternary SNARE complex formation (with Syt1 C2AB) of 65.8 s.
Consider “BDPY-labeled full-length synaptobrevin-2 (residues 1–116, S61C), on v-liposomes (from UniProt P63045 1-116) (natural protein)”, for which, in assay [3], the kfast of ternary SNARE complex formation (no Syt1) is 0.0123 s⁻¹, the kfast of ternary SNARE complex formation (with Syt1 C2AB) is 0.0249 s⁻¹, the τfast of ternary SNARE complex formation (no Syt1) came to 81.4 s and the τfast of ternary SNARE complex formation (with Syt1 C2AB) stood at 40.1 s.
